This note sets out measurements from paper PMC2835651.

The subject of the data set is Cc1cn([C@H]2C[C@H](O)[C@@H](COP(=O)(O)OP(=O)(O)OP(=O)(O)O)O2)c(=O)[nH]c1=O. The experiment in a line: purified protein. The following applies: poly(rA)/oligo(dT)15 template/primer; 25-250 μM TTP; labelled compound.

For the substance PFV PR-RT (Human spumaretrovirus), the Km is given as 45 (± 12) μM; the kcat – broadly, the number of substrate molecules converted per active site and unit of time at saturation – stood at 7.1 s⁻¹.
